Reference: PMC3814370 (2013)

Molecular target: Pcc1–Kae1 binary complex from Pyrococcus abyssi (Pyrococcus abyssi (strain GE5 / …, UniProt Q9V1Z9,Q9UXT7))
Experiment: gel filtration

Sequence of Pcc1–Kae1 binary complex from Pyrococcus abyssi (Pyrococcus abyssi (Q9V1Z9 whole entry, chain 1 of 2): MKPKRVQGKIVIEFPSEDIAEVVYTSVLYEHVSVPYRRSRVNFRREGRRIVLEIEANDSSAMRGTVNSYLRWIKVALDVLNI
Sequence of Pcc1–Kae1 binary complex from Pyrococcus abyssi (Pyrococcus abyssi (Q9UXT7 whole entry, chain 2 of 2): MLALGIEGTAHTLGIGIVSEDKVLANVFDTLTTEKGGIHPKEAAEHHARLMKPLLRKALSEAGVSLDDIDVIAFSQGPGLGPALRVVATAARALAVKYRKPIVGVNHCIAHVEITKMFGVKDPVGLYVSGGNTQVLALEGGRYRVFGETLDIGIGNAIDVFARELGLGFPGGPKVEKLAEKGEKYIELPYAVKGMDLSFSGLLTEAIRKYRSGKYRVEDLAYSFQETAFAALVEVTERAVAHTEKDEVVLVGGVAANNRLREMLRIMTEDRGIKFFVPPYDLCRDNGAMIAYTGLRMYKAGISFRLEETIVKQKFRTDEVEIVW

B1: Bud32–Cgi121 binary complex from Pyrococcus abyssi (protein)
chain 1: MKLIKQGAEAKIYLAEFSELYFDYPIKVIVKERIKKRYRIPEIDLKLRKERTIREARILRRAKEFGVNVPYVFEVDTKNMIIVMEYIEGERLKELLEKLPMEERLKVCREVGRQIGKLHEAGIVHGDLTTSNMILREGKVYFIDFGLAEFDDTIEAQGVDLHLLKRAMESTHYKWFERGFEEVLKGYIEIRGEDKGREIREKIREIELRGRYRERSWITQ
chain 2: MTPKFKNFKHDNSGQVETYLFEVISKYTMLEIKTKFGKLCIAKVKLASESIERALNLCNDNCQIVSAKCHEEVIFATILAIKAFSSGRNTAKTIKGEILLRLAGVKQIKDAIKIIGARKGENLIIYFGVSDPCSSLKDFISSLGLREEPLKPCDEDEVKRGFERAAIIEAL
- binding result: binds
